Data published in patent US20240287186A1.
pKd: −log10 of the molar value.

Molecular target: CD3 (target of Table E-1) (UniProt P07766)
Assay: Biacore (SPR; format not stated)

Substance: Anti-CD3 Fab OKT3
- pKd: 8.02
